The values below come from PMC7668254.

The series deals with T1, DROSHA fragment D3;DGCR8 fragment G1 (human;human, UniProt Q9NRR4;Q8WYQ5 390-1365;728-750, |).
T1 sequence 1: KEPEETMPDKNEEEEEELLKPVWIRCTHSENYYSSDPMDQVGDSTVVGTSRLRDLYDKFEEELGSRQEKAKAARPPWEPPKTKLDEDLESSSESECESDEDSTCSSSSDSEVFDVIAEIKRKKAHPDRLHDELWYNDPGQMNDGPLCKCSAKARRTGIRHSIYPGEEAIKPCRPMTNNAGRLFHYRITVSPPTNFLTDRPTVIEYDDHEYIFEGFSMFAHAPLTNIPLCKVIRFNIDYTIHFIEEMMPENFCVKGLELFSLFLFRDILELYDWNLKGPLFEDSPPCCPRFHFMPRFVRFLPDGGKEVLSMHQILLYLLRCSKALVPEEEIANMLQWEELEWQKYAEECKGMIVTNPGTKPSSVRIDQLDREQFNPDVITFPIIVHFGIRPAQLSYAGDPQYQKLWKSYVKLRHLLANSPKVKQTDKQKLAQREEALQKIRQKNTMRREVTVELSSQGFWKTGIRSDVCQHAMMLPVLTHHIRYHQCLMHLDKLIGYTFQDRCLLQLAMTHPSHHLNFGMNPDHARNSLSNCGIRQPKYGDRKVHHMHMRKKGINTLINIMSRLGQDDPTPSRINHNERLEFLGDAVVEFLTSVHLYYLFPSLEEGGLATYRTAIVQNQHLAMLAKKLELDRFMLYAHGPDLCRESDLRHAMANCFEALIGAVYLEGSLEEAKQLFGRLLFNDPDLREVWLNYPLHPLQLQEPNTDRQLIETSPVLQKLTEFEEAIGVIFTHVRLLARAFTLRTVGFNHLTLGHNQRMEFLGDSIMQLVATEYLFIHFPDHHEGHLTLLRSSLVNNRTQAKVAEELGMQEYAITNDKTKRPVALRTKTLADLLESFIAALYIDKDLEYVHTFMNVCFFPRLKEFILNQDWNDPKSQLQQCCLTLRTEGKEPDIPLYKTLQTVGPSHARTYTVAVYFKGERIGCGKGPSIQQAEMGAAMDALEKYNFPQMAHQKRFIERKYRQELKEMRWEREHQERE
T1 sequence 2: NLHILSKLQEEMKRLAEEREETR
The series is described as follows: EMSA; 2 mM EDTA; 1.5 pmol RNA, 5-25 pmol D3-G1 in 10 uL; 50 mM Tris-HCl pH 7.5, 150 mM NaCl, 0.2 mg/ml BSA, 10% glycerol, 2 mM EDTA, 1 mM DTT; on ice 60 min; 4% native PAGE in 1x TBE at 4 C. The settings on record: protein: recombinant;recombinant; tags: ;; copies: 1;2; hairpin.

B1: Short pri-mir-146a_C (structured_RNA)
RNA: GGAGAACUGAAUUCCAUGGGUUGUGUCAGUGUCAGACCUCUGAAAUUCAGUUCUUCAG
As for B1, the binding result was “binds”.
